Data taken from article PMC5680790 (mAbs, 2017).

Assays:
EGFR-ECD [1] = target: T1, EGFR-ECD (UniProt P00533 25-645); test: BLI
EGFR-ECD [2] = target: T1, EGFR-ECD; test: BLI; remark: listed apart in the source

B1: Anti-EGFR mAb (antibody, V domains shown)
VH: EVQLVESGGGLVQPGGSLRLSCAASGFSLTNRGVHWVRQAPGKGLEWVGVIWSGGNTDYNTPFTSRFTISRDNSKNTLYLQMNSLRAEDTAVYYCARALTYYDYEFAYWGQGTLVTVSS
VL: not shown
With B1 the Kd (EGFR-ECD [1]) was roughly 1 nM, the koff (EGFR-ECD [2]) was 0.00034 s⁻¹ and the kon (EGFR-ECD [2]) was 350000 M⁻¹ s⁻¹.
